Laboratory results as given in US20160264649A1.

Experiments:
Assay in all cases: cell-based or functional assay
[1] = target: HIV-1 Env of isolate MGRM-D-014 (subtype D) (HIV-1)
[2] = target: envelope of aMLV pseudovirus (negative control)
[3] = target: HIV-1 Env of isolate MGRM-F1-008 (subtype F) (HIV-1)
[4] = target: HIV-1 Env of pseudovirus isolate MGRM-G-024 (subtype G) (HIV-1)
[5] = target: HIV-1 Env of pseudovirus isolate MGRM-G-013 (subtype G) (HIV-1)
[6] = target: HIV-1 Env of isolate 92UG001 (subtype D) (HIV-1)
[7] = target: HIV-1 Env of isolate MGRM-F1-018 (subtype F) (HIV-1)
[8] = target: HIV-1 Env of pseudovirus isolate MGRM-G-028 (subtype G) (HIV-1)
[9] = target: HIV-1 Env of isolate MGRM-F1-013 (subtype F) (HIV-1)
[10] = target: HIV-1 Env of isolate MGRM-D-003 (subtype D) (HIV-1)
[11] = target: HIV-1 Env of isolate MGRM-D-020 (subtype D) (HIV-1)
[12] = target: HIV-1 Env of isolate 98CN009 (subtype CRF07_BC) (HIV-1)
[13] = target: HIV-1 Env of isolate MGRM-F1-021 (subtype F) (HIV-1)
[14] = target: HIV-1 Env of isolate MGRM-D-011 (subtype D) (HIV-1)
[15] = target: HIV-1 Env of isolate 92UG114 (subtype D) (HIV-1)
[16] = target: HIV-1 Env of isolate MGRM-F1-022 (subtype F) (HIV-1)
[17] = target: HIV-1 Env of pseudovirus isolate MGRM-G-011 (subtype G) (HIV-1)
[18] = target: HIV-1 Env of isolate MGRM-F1-023 (subtype F) (HIV-1)
[19] = target: HIV-1 Env of pseudovirus isolate MGRM-G-017 (subtype G) (HIV-1)
[20] = target: HIV-1 Env of isolate MGRM-D-024 (subtype D) (HIV-1)
[21] = target: HIV-1 Env of pseudovirus isolate MGRM-G-004 (subtype G) (HIV-1)
[22] = target: HIV-1 Env of isolate MGRM-F1-010 (subtype F) (HIV-1)
[23] = target: HIV-1 Env of pseudovirus isolate MGRM-G-001 (subtype G) (HIV-1)
[24] = target: HIV-1 Env of isolate 92UG005 (subtype D) (HIV-1)
[25] = target: HIV-1 Env of isolate MGRM-D-029 (subtype D) (HIV-1)
[26] = target: HIV-1 Env of isolate MGRM-D-026 (subtype D) (HIV-1)
[27] = target: HIV-1 Env of isolate MGRM-F1-004 (subtype F) (HIV-1)
[28] = target: HIV-1 Env of isolate MGRM-D-004 (subtype D) (HIV-1)
[29] = target: HIV-1 Env of isolate 92UG046 (subtype D) (HIV-1)
[30] = target: HIV-1 Env of isolate MGRM-D-013 (subtype D) (HIV-1)
[31] = target: HIV-1 Env of isolate MGRM-D-028 (subtype D) (HIV-1)
[32] = target: HIV-1 Env of isolate MGRM-D-022 (subtype D) (HIV-1)
[33] = target: HIV-1 Env of isolate MGRM-F1-020 (subtype F) (HIV-1)
[34] = target: HIV-1 Env of isolate MGRM-F1-014 (subtype F) (HIV-1)
[35] = target: HIV-1 Env of isolate MGRM-D-018 (subtype D) (HIV-1)
[36] = target: HIV-1 Env of isolate MGRM-D-016 (subtype D) (HIV-1)
[37] = target: HIV-1 Env of isolate MGRM-D-019 (subtype D) (HIV-1)
[38] = target: HIV-1 Env of isolate MGRM-D-005 (subtype D) (HIV-1)
[39] = target: HIV-1 Env of pseudovirus isolate MGRM-G-019 (subtype G) (HIV-1)
[40] = target: HIV-1 Env of isolate MGRM-F1-017 (subtype F) (HIV-1)
[41] = target: HIV-1 Env of isolate MGRM-D-021 (subtype D) (HIV-1)
[42] = target: HIV-1 Env of pseudovirus isolate MGRM-G-027 (subtype G) (HIV-1)
[43] = target: HIV-1 Env of pseudovirus isolate MGRM-G-025 (subtype G) (HIV-1)
[44] = target: HIV-1 Env of isolate 92UG024 (subtype D) (HIV-1)
[45] = target: HIV-1 Env of isolate MGRM-D-001 (subtype D) (HIV-1)
[46] = target: HIV-1 Env of isolate MGRM-F1-016 (subtype F) (HIV-1)
[47] = target: HIV-1 Env of isolate MGRM-F1-006 (subtype F) (HIV-1)
[48] = target: HIV-1 Env of isolate MGRM-D-008 (subtype D) (HIV-1)
[49] = target: HIV-1 Env of pseudovirus isolate MGRM-G-015 (subtype G) (HIV-1)
[50] = target: HIV-1 Env of pseudovirus isolate MGRM-G-009 (subtype G) (HIV-1)
[51] = target: HIV-1 Env of isolate MGRM-F1-015 (subtype F) (HIV-1)
[52] = target: HIV-1 Env of isolate MGRM-D-002 (subtype D) (HIV-1)
[53] = target: HIV-1 Env of pseudovirus isolate MGRM-G-016 (subtype G) (HIV-1)
[54] = target: HIV-1 Env of isolate 98CN006 (subtype CRF08_BC) (HIV-1)
[55] = target: HIV-1 Env of isolate MGRM-F1-012 (subtype F) (HIV-1)
[56] = target: HIV-1 Env of isolate MGRM-D-012 (subtype D) (HIV-1)
[57] = target: HIV-1 Env of pseudovirus isolate MGRM-G-006 (subtype G) (HIV-1)
[58] = target: HIV-1 Env of pseudovirus isolate MGRM-G-014 (subtype G) (HIV-1)

B1: PGT-137 (antibody, V domains shown)
VH: EVHLEESGPGLVRPSETLSLTCTASGGSIRGGEWGDSDYHWGWVRHSPEKGLEWIGSIHWRGTTHYNAPFRGRGRLSIDLSRNQFSLRLTSVTAEDTAVYYCVKHKYHDIVMVVPIAGWFDPWGQGLQVTVSS
VL: EIMMTQSPAILSVSPGDRATLSCRASQSVKNNLAWYQKRPGQAPRLLIFDTSSRASGIPARFSGGGSGTEFTLTVNSMQSEDFATYYCQQYEEWPRTFGQGTKVEIK
0.051 µg/mL: IC50 [4]
41.7 µg/mL: IC50 [23]
1.22 µg/mL: IC50 (neutralization) [54]
5.06 µg/mL: IC50 (neutralization) [12]
> 50 µg/mL: IC50 (neutralization) [1] | IC50 [2] | IC50 (neutralization) [3] | IC50 [5] | IC50 (neutralization) [6] | IC50 (neutralization) [7] | IC50 [8] | IC50 (neutralization) [9] | IC50 (neutralization) [10] | IC50 (neutralization) [11] | IC50 (neutralization) [13] | IC50 (neutralization) [15] | IC50 [17] | IC50 (neutralization) [18] | IC50 (neutralization) [20] | IC50 [21] | IC50 (neutralization) [22] | IC50 (neutralization) [24] | IC50 (neutralization) [25] | IC50 (neutralization) [26] | IC50 (neutralization) [28] | IC50 (neutralization) [29] | IC50 (neutralization) [30] | IC50 (neutralization) [31] | IC50 (neutralization) [32] | IC50 (neutralization) [34] | IC50 (neutralization) [36] | IC50 (neutralization) [37] | IC50 (neutralization) [38] | IC50 (neutralization) [40] | IC50 (neutralization) [41] | IC50 [43] | IC50 (neutralization) [45] | IC50 (neutralization) [46] | IC50 (neutralization) [47] | IC50 (neutralization) [48] | IC50 [49] | IC50 [50] | IC50 (neutralization) [51] | IC50 (neutralization) [52] | IC50 [53] | IC50 (neutralization) [55] | IC50 (neutralization) [56] | IC50 [57] | IC50 [58]
0.106 µg/mL: IC50 (neutralization) [44]
15.1 µg/mL: IC50 (neutralization) [35]
0.228 µg/mL: IC50 [42]
40.3 µg/mL: IC50 (neutralization) [27]
6.23 µg/mL: IC50 (neutralization) [16]
1.93 µg/mL: IC50 (neutralization) [33]
0.126 µg/mL: IC50 [39]
6.3 µg/mL: IC50 (neutralization) [14]
34.9 µg/mL: IC50 [19]

B2: PGT-136 (antibody, V domains shown)
VH: QLQLQESGPGLVKPSETLSLTCTVSGGSMRGTDWGENDFHYGWIRQSSAKGLEWIGSIHWRGRTTHYKTSFRSRATLSIDTSNNRFSLTFSFVTAADTAVYYCARHKYHDIFRVVPVAGWFDPWGQGLLVTVSS
VL: EIVMTQSPPTLSVSPGETATLSCRASQNVKNNLAWYQLKPGQAPRLLIFDASSRAGGIPDRFSGSGYGTDFTLTVNSVQSEDFGDYFCQQYEEWPRTFGQGTKVDIK
0.152 µg/mL: IC50 [4]
44.3 µg/mL: IC50 [39]
0.406 µg/mL: IC50 (neutralization) [54]
0.052 µg/mL: IC50 (neutralization) [44]
8.11 µg/mL: IC50 [23]
2.42 µg/mL: IC50 (neutralization) [16]
0.428 µg/mL: IC50 (neutralization) [12]
9.31 µg/mL: IC50 (neutralization) [33]
45.2 µg/mL: IC50 [42]
> 50 µg/mL: IC50 (neutralization) [1] | IC50 [2] | IC50 (neutralization) [3] | IC50 [5] | IC50 (neutralization) [6] | IC50 (neutralization) [7] | IC50 [8] | IC50 (neutralization) [9] | IC50 (neutralization) [10] | IC50 (neutralization) [11] | IC50 (neutralization) [13] | IC50 (neutralization) [14] | IC50 (neutralization) [15] | IC50 [17] | IC50 (neutralization) [18] | IC50 [19] | IC50 (neutralization) [20] | IC50 [21] | IC50 (neutralization) [22] | IC50 (neutralization) [24] | IC50 (neutralization) [25] | IC50 (neutralization) [26] | IC50 (neutralization) [27] | IC50 (neutralization) [28] | IC50 (neutralization) [29] | IC50 (neutralization) [30] | IC50 (neutralization) [31] | IC50 (neutralization) [32] | IC50 (neutralization) [34] | IC50 (neutralization) [35] | IC50 (neutralization) [36] | IC50 (neutralization) [37] | IC50 (neutralization) [38] | IC50 (neutralization) [40] | IC50 (neutralization) [41] | IC50 [43] | IC50 (neutralization) [45] | IC50 (neutralization) [46] | IC50 (neutralization) [47] | IC50 (neutralization) [48] | IC50 [49] | IC50 [50] | IC50 (neutralization) [51] | IC50 (neutralization) [52] | IC50 [53] | IC50 (neutralization) [55] | IC50 (neutralization) [56] | IC50 [57] | IC50 [58]
